Results taken from publication PMC6508626.

Tests used:
Assay in all cases: co-IP
[1] = target: HA-tagged NS1 Y32A (Dengue virus 2 (strain 16681))
[2] = target: Carboxy-terminally HA-tagged wildtype NS1 from pTM_NS1_HA (Dengue virus 2 (strain 16681)) (UniProt P29990)
[3] = target: HA-tagged NS1 Y158A (Dengue virus 2 (strain 16681))
[4] = target: HA-tagged NS1 T317A (Dengue virus 2 (strain 16681))
[5] = target: HA-tagged NS1 W311A (Dengue virus 2 (strain 16681))
[6] = target: HA-tagged NS1 K189A (Dengue virus 2 (strain 16681))
[7] = target: HA-tagged NS1 W150A (Dengue virus 2 (strain 16681))
[8] = target: HA-tagged NS1 R62A (Dengue virus 2 (strain 16681))
[9] = target: HA-tagged NS1 D197A (Dengue virus 2 (strain 16681))
[10] = target: HA-tagged NS1 W8A (Dengue virus 2 (strain 16681))
[11] = target: HA-tagged NS1 P320A (Dengue virus 2 (strain 16681))
[12] = target: HA-tagged NS1 G161A (Dengue virus 2 (strain 16681))
[13] = target: HA-tagged NS1 P319A (Dengue virus 2 (strain 16681))
[14] = target: HA-tagged NS1 W168A (Dengue virus 2 (strain 16681))
[15] = target: HA-tagged NS1 R336A (Dengue virus 2 (strain 16681))
[16] = target: HA-tagged NS1 L153A (Dengue virus 2 (strain 16681))
[17] = target: HA-tagged NS1 E334A (Dengue virus 2 (strain 16681))
[18] = target: HA-tagged NS1 S252A (Dengue virus 2 (strain 16681))
[19] = target: HA-tagged NS1 D136A (Dengue virus 2 (strain 16681))

Substance: NS4A-2K-4B polyprotein from pTM_NS4A-2K-4B (natural protein)
- NS1—NS4A-2K-4B interaction (fold of WT) [1]: 0.31 fold of WT
- NS1—NS4A-2K-4B interaction (fold of WT) [2]: 1 fold of WT
- NS1—NS4A-2K-4B interaction (fold of WT) [3]: 3.01 fold of WT
- NS1—NS4A-2K-4B interaction (fold of WT) [4]: 2.08 fold of WT
- NS1—NS4A-2K-4B interaction (fold of WT) [5]: 0.31 fold of WT
- NS1—NS4A-2K-4B interaction (fold of WT) [6]: 1.33 fold of WT
- NS1—NS4A-2K-4B interaction (fold of WT) [7]: 0.38 fold of WT
- NS1—NS4A-2K-4B interaction (fold of WT) [8]: 3.97 fold of WT
- NS1—NS4A-2K-4B interaction (fold of WT) [9]: 4.09 fold of WT
- NS1—NS4A-2K-4B interaction (fold of WT) [10]: 0.99 fold of WT
- NS1—NS4A-2K-4B interaction (fold of WT) [11]: 0.86 fold of WT
- NS1—NS4A-2K-4B interaction (fold of WT) [12]: 0.07 fold of WT
- NS1—NS4A-2K-4B interaction (fold of WT) [13]: 0.37 fold of WT
- NS1—NS4A-2K-4B interaction (fold of WT) [14]: 0.02 fold of WT
- NS1—NS4A-2K-4B interaction (fold of WT) [15]: 0.26 fold of WT
- NS1—NS4A-2K-4B interaction (fold of WT) [16]: 1.67 fold of WT
- NS1—NS4A-2K-4B interaction (fold of WT) [17]: 0.18 fold of WT
- NS1—NS4A-2K-4B interaction (fold of WT) [18]: 3.18 fold of WT
- NS1—NS4A-2K-4B interaction (fold of WT) [19]: 0.21 fold of WT
